From patent US20200271647A1 (SEOUL NATIONAL UNIVERSITY HOSPITAL, published 2020)
Numbering of substitutions follows the chain as printed.

B1: VH5/Vk0 (antibody, V domains shown)
VH: QVQLVQSGAEVKKPGSSVKVSCQGSGYSFPTHWITWVRQAPGQGLEWMGTIDPTDSYNFYGPSFQGRVTITADSSTSTAYMELSSLRSEDTAVYYCARDGNYYDSRGYYYDTFDMWGQGTLVTVSS
VL: DIQMTQSPSFLSASVGDRVTITCRASQGISTYLAWYQQKPGTAPKLLIYSASTLESGVPSRFSGSGSGTDFTLTISSLQPEDSATYYCQQADSFPLTFGGGTKVEIK
notes: CDR-grafted variant of the IgG1-based anti-cMet antibody 1E4; also called anti-cMet candidate antibody VH5/Vk0
B2: VH0/Vk2 (antibody, V domains shown)
VH: QVQLVQSGAEVKKPGESLRISCQGSGYSFPTHWITWVRQMPGKGLEWMGTIDPTDSYNFYGPSFQGHVTISADSSSSTAYLQWSSLKASDTAMYYCARDGNYYDSRGYYYDTFDMWGQGTLVTVSS
VL: B1 VL with F10S, T42K, S83F
notes: also called anti-cMet candidate antibody VH0/Vk2
B3: VH2/Vk2 (antibody, V domains shown)
VH: B2 VH with Q1E, R19K, Q23K, H67Q, S74K, S76I
VL: B1 VL with F10S, T42K, S83F
B4: VH2/Vk0 (antibody, V domains shown)
VH: B2 VH with Q1E, R19K, Q23K, H67Q, S74K, S76I
VL: B1 VL
B5: VH6/Vk2 (antibody, V domains shown)
VH: B1 VH with Q23K, G24A, S74K
VL: B1 VL with F10S, T42K, S83F
notes: CDR-grafted variant of the IgG1-based anti-cMet antibody 1E4; also called anti-cMet candidate antibody VH6/Vk2
B6: VH5/Vk2 (antibody, V domains shown)
VH: B1 VH
VL: B1 VL with F10S, T42K, S83F
notes: CDR-grafted variant of the IgG1-based anti-cMet antibody 1E4; also called anti-cMet candidate antibody VH5/Vk2
B7: VH4/Vk0 (antibody, V domains shown)
VH: B1 VH with V93M
VL: B1 VL
notes: CDR-grafted variant of the IgG1-based anti-cMet antibody 1E4; also called anti-cMet candidate antibody VH4/Vk0
B8: VH0/Vk0 (antibody, V domains shown)
VH: B2 VH
VL: B1 VL
notes: Derived from the IgG1-based 1E4 by a K to R change in the CH1 domain (G1m(3) allotype) and an S to T change in the light chain constant region (Km3 allotype); also called VMDO2 VH0/Vk0
B9: VH4/Vk2 (antibody, V domains shown)
VH: B1 VH with V93M
VL: B1 VL with F10S, T42K, S83F
notes: CDR-grafted variant of the IgG1-based anti-cMet antibody 1E4; also called anti-cMet candidate antibody VH4/Vk2
B10: VH6/Vk0 (antibody, V domains shown)
VH: B1 VH with Q23K, G24A, S74K
VL: B1 VL
notes: CDR-grafted variant of the IgG1-based anti-cMet antibody 1E4; also called anti-cMet candidate antibody VH6/Vk0

target: T1, human c-Met antigen (Sino Biological) (human, UniProt P08581 25-932); assay: SPR (BIACORE T200), antibody captured on protein A CM5 chip, human c-Met 0.25 to 2 nM as analyte
T1 construct: Bought antigen used as the analyte in SPR; also called hepatocyte growth factor receptor; HGFR
T1 sequence (P08581 25-932 limits assumed): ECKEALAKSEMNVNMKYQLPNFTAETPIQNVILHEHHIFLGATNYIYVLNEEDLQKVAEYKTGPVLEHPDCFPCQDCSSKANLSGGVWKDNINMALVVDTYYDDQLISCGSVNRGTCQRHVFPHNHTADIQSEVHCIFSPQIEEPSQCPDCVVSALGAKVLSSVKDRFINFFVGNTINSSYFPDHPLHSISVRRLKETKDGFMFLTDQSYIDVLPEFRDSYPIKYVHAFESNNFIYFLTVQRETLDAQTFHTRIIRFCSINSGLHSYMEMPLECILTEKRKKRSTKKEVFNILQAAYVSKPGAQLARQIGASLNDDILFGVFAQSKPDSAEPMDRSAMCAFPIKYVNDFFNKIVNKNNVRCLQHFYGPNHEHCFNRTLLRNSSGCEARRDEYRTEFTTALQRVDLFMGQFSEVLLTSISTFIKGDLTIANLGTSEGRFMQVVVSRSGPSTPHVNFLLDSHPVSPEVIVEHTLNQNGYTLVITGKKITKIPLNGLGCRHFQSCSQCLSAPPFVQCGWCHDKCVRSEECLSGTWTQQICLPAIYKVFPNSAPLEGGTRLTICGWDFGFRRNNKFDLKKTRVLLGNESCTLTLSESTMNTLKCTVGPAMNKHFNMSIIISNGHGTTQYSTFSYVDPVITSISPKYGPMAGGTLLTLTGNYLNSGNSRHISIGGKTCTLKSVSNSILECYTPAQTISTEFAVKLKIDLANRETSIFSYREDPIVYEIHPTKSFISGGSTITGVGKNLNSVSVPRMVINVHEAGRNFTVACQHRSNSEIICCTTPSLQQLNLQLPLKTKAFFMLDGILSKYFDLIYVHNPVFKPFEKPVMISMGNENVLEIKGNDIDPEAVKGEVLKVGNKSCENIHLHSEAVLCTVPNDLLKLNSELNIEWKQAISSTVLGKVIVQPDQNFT
Experimental: (§1) After combining the above variants, each combination was subjected to measurement of a binding ability (that is, affinity). Then, using BIACORE T200 (serial no. 1909913) device, BIACORE T200 Control Software V2.0.1 and BIACORE T200 Evaluation Software V3.0 (GE Healthcare, Uppsala, Sweden) analysis program, affinity of each candidate antibody to the antigen, c-Met, was determined along with a dissociation constant (KD value). After fixing the anti-cMet antibody to be analyzed on a protein ACM5 chip (GE Healthcare, Little Chalfont, UK), sensorgrams were acquired by flowing human c-Met antigen (Sino Biological, Beijing, China) at different concentrations in a range of 0.25 to 2 nM over the antibody. Based on the acquired sensorgrams, rate constants kₒₙ and koff were measured and KD value was calculated from a ratio of koff/kₒₙ. The calculated results are shown in Table 10 below, wherein 10 analyzed antibodies were listed in the order of higher affinity to lower affinity.

| Binder | Kd |
| --- | --- |
| B1 | 352 pM |
| B2 | 512 pM |
| B3 | 502 pM |
| B4 | 534 pM |
| B5 | 440 pM |
| B6 | 420 pM |
| B7 | 395 pM |
| B8 | 520 pM |
| B9 | 423 pM |
| B10 | 414 pM |

target: T1, human c-Met antigen (Sino Biological); assay: derived from SPR KD (BIACORE T200); values fit 3.52/KD, i.e. relative to the best KD (VH5/Vk0); reference not given
Experimental: as §1
(§2) In order to determine a final candidate group from the above selected candidate antibodies, standards for determination were subdivided into expression level, affinity, thermal stability and biopotency, and used for comparison. Generally, considering production time and costs, the expression level among the above standards is regarded as the most important indicator. Accordingly, in first consideration of smooth antibody production, the present inventors have excluded the candidate antibodies with an expression level of less than […]. Thereafter, compared to the reference antibody (VH0/Vk0), improvement of each candidate antibody was converted into a numerical value from each of selection indexes. Then, an assay value of the candidate antibody measured from the selection index was divided by an average assay value to obtain a ratio (index 1). This index 1 was again divided by a ratio of VH0/Vk0 to obtain index 2, which in turn, is normalized (Tables 12 to 15). Further, these numerical values analyzed from four selection indexes (that is, the above indicators) were subjected to multiplying operation, and the candidate antibodies were overall compared with respect to the four selection indexes. Therefore, the finally resultant values (index 3) were listed in the order (highest first).

| Binder | Index 1 (affinity index from KD) |
| --- | --- |
| B1 | 1 |
| B2 | 0.688 |
| B5 | 0.8 |
| B6 | 0.838 |
| B7 | 0.891 |
| B8 | 0.677 |
| B9 | 0.832 |
| B10 | 0.85 |

target: T1, human c-Met antigen (Sino Biological); assay: derived from SPR KD; index 1 divided by the ratio of VH0/Vk0
Experimental: as §1, §2

| Binder | Index 2 (affinity index normalised to VH0/Vk0) |
| --- | --- |
| B1 | 1.48 |
| B2 | 1.02 |
| B5 | 1.18 |
| B6 | 1.24 |
| B7 | 1.32 |
| B8 | 1 |
| B9 | 1.23 |
| B10 | 1.26 |

target: c-Met protein receptor on human umbilical vein endothelial cells (HUVEC) (human, UniProt P08581 25-1390); assay: cell-based or functional assay
Sequence (P08581 25-1390): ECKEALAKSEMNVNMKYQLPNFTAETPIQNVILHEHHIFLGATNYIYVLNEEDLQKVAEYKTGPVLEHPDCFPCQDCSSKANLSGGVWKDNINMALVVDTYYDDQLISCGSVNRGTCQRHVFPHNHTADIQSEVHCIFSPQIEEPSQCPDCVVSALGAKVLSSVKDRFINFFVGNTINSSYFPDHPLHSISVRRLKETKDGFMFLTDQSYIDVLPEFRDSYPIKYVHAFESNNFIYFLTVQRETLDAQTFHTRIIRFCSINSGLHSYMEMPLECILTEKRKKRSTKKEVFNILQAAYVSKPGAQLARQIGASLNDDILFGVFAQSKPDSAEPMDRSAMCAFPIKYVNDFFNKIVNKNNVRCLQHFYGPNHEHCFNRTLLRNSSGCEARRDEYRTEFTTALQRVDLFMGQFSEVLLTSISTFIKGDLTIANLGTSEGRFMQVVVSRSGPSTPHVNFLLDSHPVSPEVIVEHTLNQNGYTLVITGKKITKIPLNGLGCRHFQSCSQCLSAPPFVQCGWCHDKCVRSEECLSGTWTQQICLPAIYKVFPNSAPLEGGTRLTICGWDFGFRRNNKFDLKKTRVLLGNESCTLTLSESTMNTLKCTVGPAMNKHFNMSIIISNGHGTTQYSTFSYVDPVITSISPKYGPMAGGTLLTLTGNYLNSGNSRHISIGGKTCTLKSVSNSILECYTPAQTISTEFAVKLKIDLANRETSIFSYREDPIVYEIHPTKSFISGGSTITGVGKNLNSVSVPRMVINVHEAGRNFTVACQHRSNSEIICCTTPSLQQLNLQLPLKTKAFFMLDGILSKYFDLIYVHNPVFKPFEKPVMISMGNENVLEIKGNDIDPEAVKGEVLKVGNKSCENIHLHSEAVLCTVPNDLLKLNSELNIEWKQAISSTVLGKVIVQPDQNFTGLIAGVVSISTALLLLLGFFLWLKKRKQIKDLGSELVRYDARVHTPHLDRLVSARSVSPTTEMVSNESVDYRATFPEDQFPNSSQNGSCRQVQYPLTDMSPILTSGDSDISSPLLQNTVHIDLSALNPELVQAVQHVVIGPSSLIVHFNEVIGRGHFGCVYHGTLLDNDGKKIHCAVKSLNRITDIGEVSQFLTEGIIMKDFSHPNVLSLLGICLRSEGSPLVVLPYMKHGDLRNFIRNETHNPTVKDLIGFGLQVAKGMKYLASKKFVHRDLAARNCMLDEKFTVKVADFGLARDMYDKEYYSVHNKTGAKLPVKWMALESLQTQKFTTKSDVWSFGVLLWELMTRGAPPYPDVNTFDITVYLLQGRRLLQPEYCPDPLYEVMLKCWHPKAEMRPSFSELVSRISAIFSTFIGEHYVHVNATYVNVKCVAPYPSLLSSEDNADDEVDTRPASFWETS

| Binder | Relative Migration (%) (HUVEC migration assay) |
| --- | --- |
| B1 | 128% |
| B2 | 163% |
| B5 | 154% |
| B6 | 176% |
| B7 | 122% |
| B8 | 150% |
| B9 | 177% |
| B10 | 152% |

target: T1, human c-Met antigen (Sino Biological); assay: SPR (BIACORE T200), antibody captured on protein A CM5 chip, human c-Met as analyte
Experimental: as §1

| Binder | Relative KD to VH0/Vk0 |
| --- | --- |
| B1 | 0.68 |
| B2 | 0.98 |
| B3 | 0.97 |
| B4 | 1.03 |
| B5 | 0.85 |
| B6 | 0.81 |
| B7 | 0.76 |
| B8 | 1 |
| B9 | 0.81 |
| B10 | 0.8 |
